{"source": "paper doi:10.1101/2021.05.09.442808", "about": "(bioRxiv, 2021)", "target": "HKU1 S 2P prefusion-stabilized ectodomain trimer (HCoV-HKU1, isolate  (N5 used), UniProt Q0ZME7, stabilised)", "experiment": "SPR", "data": [{"binder": "S2P6 Fab fragment (Fab, V domains shown) VH: EVQLVQSGAEVKKPGASVKVSCKASGYTFTSQYMHWVRQAPGQGLEWIGIINPSGVHTSYAQKFQGRVTLTRDTSTSTLYMELSSLRSEDTAVYYCARGSPKGAFDYWGQGTLVTVSS VL: not shown", "values": [{"measurement": "Kd", "result": "~120", "unit": "nM"}]}]}
